Data reported in patent publication US11932683B2, “Cellular factors involved in the cytotoxicity of Staphylococcus aureus leukocidins: novel therapeutic targets” (NEW YORK UNIVERSITY, priority 2013, dated 2024).

What was measured:
monocytes within PBMCs = test: LukED treatment of human PBMCs, CD14/CD3 flow cytometry; format: cell-based; conditions: CCR5+-gated PBMC; LukED 75 nM plus MVC 100 ng/mL
Procedure: Isolation of PBMCs. Blood was obtained as buffy coats with the consent of de-identified donors from the New York Blood Center. PBMCs were isolated from blood using a Ficoll-Paque PLUS gradient (GE Amersham) and gated on CCR5^+ cells, followed by anti-CD3 and CD14 cell surface staining for lymphocyte and monocyte populations. Cells were then incubated with LukED (75 nM) in the presence or absence of maraviroc (MVC, 100 ng ml-1).
CCR5 inhibitor and ligands. Maraviroc was obtained through the AIDS Research and Reference Reagent Program, Division of AIDS (NIAID, NIH) and used at a final concentration of 100 ng ml-1.
FACS analysis. Cell staining was performed as described previously (Alonzo et al., “CCR5 is a Receptor for Staphylococcus aureus Leukotoxin ED,” Nature 493:51-55 (2013), which is hereby incorporated by reference in its entirety). FACS data were obtained using FACSDiva software on a LSRII flow cytometer (BD Biosciences). Data was analyzed using FlowJo software (Treestar).
(§1) Leukotoxin treatments. HEK293T cells, THP-1, primary human PBMCs and primary murine peritoneal exudate cells were treated with LukE, LukD or LukED as previously described (Alonzo et al., “CCR5 is a Receptor for Staphylococcus aureus Leukotoxin ED,” Nature 493:51-55 (2013), which is hereby incorporated by reference in its entirety). In all experiments 1-2×10^5 cells were seeded into 96-well plates. […]

CCR5^+ cells = conditions: cited from earlier work
CXCR2 [1] = molecular target: T1, CXCR2 (Homo sapiens, UniProt P25025); test: Toxin susceptibility of HEK293T cells transfected with chemokine receptor CXCR2; format: cell-based; set-up: expressed in transfected cells; host or cells: HEK293T; conditions: viability (600 nM) or ethidium bromide permeability (1 hr; HlgAB/HlgCB 20 μg/ml)
T1 sequence (P25025 1-360): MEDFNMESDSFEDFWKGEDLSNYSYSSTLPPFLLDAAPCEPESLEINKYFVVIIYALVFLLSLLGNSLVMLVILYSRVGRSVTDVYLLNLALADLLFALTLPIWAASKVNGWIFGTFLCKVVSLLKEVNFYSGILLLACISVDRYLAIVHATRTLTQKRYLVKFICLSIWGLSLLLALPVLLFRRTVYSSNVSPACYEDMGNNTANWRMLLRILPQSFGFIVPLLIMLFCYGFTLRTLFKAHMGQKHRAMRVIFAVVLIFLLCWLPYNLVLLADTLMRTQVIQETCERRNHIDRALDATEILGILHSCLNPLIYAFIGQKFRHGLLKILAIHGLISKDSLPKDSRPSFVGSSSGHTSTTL
Procedure: Cell culture conditions and viral transductions. Primary human cells and THP-1 were cultured at 37° C. with 5% CO2 in RPMI supplemented with 10% fetal bovine serum (FBS; Atlanta Biologicals) and penicillin (100 U ml-1) and streptomycin (0.1 mg ml-1) (Mediatech) unless stated otherwise. Overexpression and lentiviral-based knockdown of Cxcr2 or non-target shRNA were performed as previously described (Wan et al., “Cytokine Signals Through PI-3 Kinase Pathway Modulate Th17 Cytokine Production by CCR6+ Human Memory T Cells,” J. Exp. Med. 208:1875-1887 (2011), which is hereby incorporated by reference in its entirety) and maintained in 1.3 μg ml-1 puromycin. HEK293T cells were cultured at 37° C. with 5% CO2 in DMEM (Cellgro) and supplemented as described above.
as §1

human PMNs [2] = test: Viability of primary human neutrophils (PMNs) treated with leukotoxins; format: cell-based; conditions: HlgA or hybrid mixed equimolar with HlgB; CellTiter; n=8 donors
CXCR1 [3] = molecular target: T2, CXCR1 (Homo sapiens, UniProt P25024); test: Toxin susceptibility of HEK293T cells transfected with chemokine receptor CXCR1; format: cell-based; set-up: expressed in transfected cells; host or cells: HEK293T; conditions: viability (600 nM) or ethidium bromide permeability (1 hr; HlgAB/HlgCB 20 μg/ml)
T2 sequence (P25024 1-350): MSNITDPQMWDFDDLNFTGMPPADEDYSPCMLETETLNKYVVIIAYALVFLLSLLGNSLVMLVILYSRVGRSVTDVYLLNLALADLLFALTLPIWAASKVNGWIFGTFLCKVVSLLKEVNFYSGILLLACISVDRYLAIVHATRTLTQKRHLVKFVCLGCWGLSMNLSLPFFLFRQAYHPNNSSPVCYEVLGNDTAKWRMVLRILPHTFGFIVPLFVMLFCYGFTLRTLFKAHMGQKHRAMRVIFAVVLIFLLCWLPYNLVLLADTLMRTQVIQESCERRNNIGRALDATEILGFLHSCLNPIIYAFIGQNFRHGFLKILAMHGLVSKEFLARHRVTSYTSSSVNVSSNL

DARC = molecular target: T3, DARC (Homo sapiens, UniProt Q16570); test: Toxin susceptibility of HEK293T cells transfected with DARC; format: cell-based; conditions: ethidium bromide permeability (1 hr; HlgAB/HlgCB 20 μg/ml)
T3 construct: expressed in transfected cells; host or cells: HEK293T
T3 sequence (Q16570 1-336): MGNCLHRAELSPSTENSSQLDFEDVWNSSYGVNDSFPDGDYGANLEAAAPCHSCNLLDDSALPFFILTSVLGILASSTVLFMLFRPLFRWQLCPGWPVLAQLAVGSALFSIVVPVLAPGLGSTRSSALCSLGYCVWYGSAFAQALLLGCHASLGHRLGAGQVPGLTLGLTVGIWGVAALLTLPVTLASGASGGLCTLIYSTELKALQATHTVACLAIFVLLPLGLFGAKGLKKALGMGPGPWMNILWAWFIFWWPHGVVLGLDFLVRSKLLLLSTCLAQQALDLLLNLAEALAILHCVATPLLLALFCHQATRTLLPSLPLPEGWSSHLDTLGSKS

human PMNs [4] = test: Binding and competition assays with GFP-LukE/GFP-LukD on PMNs, flow cytometry; conditions: GFP-LukE 300 nM
Procedure: Binding and competition assays. For binding assays, increasing concentrations of GFP-LukE or GFP-LukD were added to 5×10^4 human PMNs and incubated for 30 minutes on ice, then washed once in FACS buffer and fixed for 15 minutes at room temperature followed by flow cytometric analysis. Mean fluorescence intensity (MFI) of GFP^+ cells was measured to establish the toxin concentration required to achieve saturable binding. For remaining competition assays, increasing concentrations of either LukE or LukS-PV were co-incubated with a constant saturable concentration of LukE-GFP (300 nM) for 30 minutes. Cells were washed once in FACS buffer, fixed for 15 minutes in FACS fixing buffer, washed again in FACS buffer, and binding was assessed by flow cytometry. The mean GFP fluorescent intensity is represented as % GFP^+, based on the maximal fluorescence observed upon incubation with 300 nM GFP-LukE. […] Cells were washed once in FACS buffer, fixed for 15 minutes in FACS fixing buffer, washed again in FACS buffer, and binding was assessed by flow cytometry as described above. Results for these assays were depicted graphically using GraphPad PRISM software (version 5.0f, GraphPad PRISM Software, Inc.).

[5] = system: CXCR1 and CXCR2 activation on human PMNs; test: Calcium mobilization on PMNs (Fluo4-AM, flow cytometry); format: cell-based; conditions: LukE 300 nM
Procedure: Measurements of calcium mobilization. CXCR1 and CXCR2 activation on human PMNs was evaluated using the fluorescent calcium indicator Fluo4-AM (Invitrogen) as previously described (Alonzo et al., “CCR5 is a Receptor for Staphylococcus aureus Leukotoxin ED,” Nature 493:51-55 (2013), which is hereby incorporated by reference in its entirety). Briefly, cells were incubated for 30 minutes at room temperature with 3 μM of Fluo4-AM in Hank's Balanced Salt Solution (HBSS) followed by three washes in HBSS and equilibration at 37° C. for 30 minutes. Baseline calcium levels were analyzed over time on a flow cytometer for 60 seconds. […] The mean fluorescent intensity over 5-second intervals was plotted for graphical display.

CXCR2 [6] = molecular target: T1, CXCR2; test: Pulldown of His-tagged toxin with cell lysates containing HA-tagged CXCR2; format: binding; set-up: host or cells: HEK293T; conditions: HA-tagged receptor lysate
Procedure: (§2) Biochemical assays to examine interactions between LukED and CXCR1 or CXCR2. HEK293T cells were transiently transfected with cDNAs encoding N-terminal HA-tagged CXCR1 or CXCR2 (Missouri S&T cDNA Resource Center) using Lipofectamine 2000 (Invitrogen). Forty-eight hours post transfection, cells were detached with PBS containing 5 mM EDTA and membrane proteins were solubilized (approximately 1×10^6 cells per condition) for 1 hour using lysis buffer (PBS+10mM imidazole (Fisher)+1% Brij 010 (Sigma)+1 mM PMSF (Thermo Scientific)+2× protease inhibitor pellets (Roche)). His-tagged LukE and LukD were incubated with equilibrated Ni-NTA resin (Qiagen) for 2 hours, followed by three washes in lysis buffer. Lysates and resin were then incubated together for 2 hours, followed by three washes in lysis buffer and final resuspension of resin in 45 μl of 4×SDS sample buffer. Protein samples were run on 10% SDS-PAGE gels at 80V, followed by transfer to nitrocellulose membranes (GE) for 1 hour at 1 Amp. Membranes were blocked with PBS+0.01% Tween-20+5% non-fat milk for 1 hour and incubated overnight at 4° C. with either anti-His antibody diluted at 1:3,000 in PBS+0.01% Tween-20 for toxins (Cell Sciences) or anti-HA antibody diluted at 1:1,000 in with PBS+0.01% Tween-20+5% non-fat milk for receptors (Covance). […]

CXCR1 [7] = molecular target: T2, CXCR1; test: Pulldown of His-tagged toxin with cell lysates containing HA-tagged CXCR1; format: binding; set-up: host or cells: HEK293T; conditions: HA-tagged receptor lysate
Procedure: as §2

human RBCs = test: LukED-mediated lysis of human red blood cells; format: cell-based; conditions: n=3 donors

Molecule: Maraviroc [reference compound]
- protection of monocytes from LukED-mediated death (monocytes within PBMCs): does not protect monocytes from LukED-mediated death
- block of LukED mediated killing of CCR5+ cells (CCR5^+ cells): known to block LukED mediated killing of CCR5^+ cells

Molecule: HlgAB: S. aureus γ-hemolysin bicomponent leukotoxin, HlgA (SEQ ID NO:6) plus HlgB (SEQ ID NO:16)
- susceptibility of CXCR2-transfected HEK293T cells to toxin (CXCR2 [1]): rendered cells susceptible
- cytotoxic activity against hPMNs (human PMNs [2]): exhibited potent cytotoxic activity against hPMNs
- susceptibility of CXCR1-transfected HEK293T cells to toxin (CXCR1 [3]): rendered cells susceptible
- susceptibility of DARC-transfected HEK293T cells to toxin (DARC): rendered cells susceptible

Molecule: LukE: S. aureus Leukocidin E subunit, soluble protein SEQ ID NO:4
- competition with GFP-LukE binding to PMNs (human PMNs [4]): competed off
- calcium mobilization on PMNs [5]: unable to elicit calcium mobilization
- complex formation with CXCR2 (pulldown, immunoblot) (CXCR2 [6]): forms complexes with both CXCR1 and CXCR2
- complex formation with CXCR1 (pulldown, immunoblot) (CXCR1 [7]): forms complexes with both CXCR1 and CXCR2

B1: DARC: purified Duffy antigen receptor for chemokines (OriGene Technologies Inc.) (protein)
chain: MGNCLHRAELSPSTENSSQLDFEDVWNSSYGVNDSFPDGDYGANLEAAAPCHSCNLLDDSALPFFILTSVLGILASSTVLFMLFRPLFRWQLCPGWPVLAQLAVGSALFSIVVPVLAPGLGSTRSSALCSLGYCVWYGSAFAQALLLGCHASLGHRLGAGQVPGLTLGLTVGIWGVAALLTLPVTLASGASGGLCTLIYSTELKALQATHTVACLAIFVLLPLGLFGAKGLKKALGMGPGPWMNILWAWFIFWWPHGVVLGLDFLVRSKLLLLSTCLAQQALDLLLNLAEALAILHCVATPLLLALFCHQATRTLLPSLPLPEGWSSHLDTLGSKS
- inhibition of LukED-mediated lysis of RBCs (human RBCs): fully neutralize LukED-mediated lysis of RBCs

B2: HlgA^LukE-DR4/HlgB: HlgA with its DR4 domain swapped with LukE DR4, mixed equimolar with HlgB (protein)
chain 1: ENKIEDIGQGAEIIKRTQDITSKRLAITQNIQFDFVKDKKYNKDALVVKMQGFISSRTTYSDLKKYPYIKRMIWPFQYNISLKTKDSNVDLINYLPKNKIDSADVSQKLGYNIGGNFQSAPSIGGSGSFNYSKTISYNQKNYVTEVESQNSKGVKWGVKANSFVTPNGQVSAYDQYLFAQSPNGPTGSAREYFAPDNQLPPLIQSGFNPSFITTLSHERGKGDKSEFEITYGRNMDATYAYVTRHRLAVDRKHDAFKNRNVTVKYEVNWKTHEVKIKSITPK
chain 2: EGKITPVSVKKVDDKVTLYKTTATADSDKFKISQILTFNFIKDKSYDKDTLVLKATGNINSGFVKPNPNDYDFSKLYWGAKYNVSISSQSNDSVNVVDYAPKNQNEEFQVQNTLGYTFGGDISISNGLSGGLNGNTAFSETINYKQESYRTTLSRNTNYKNVGWGVEAHKIMNNGWGPYGRDSFHPTYGNELFLAGRQSSAYAGQNFIAQHQMPLLSRSNFNPEFLSVLSHRQDGAKKSKITVTYQREMDLYQIRWNGFYWAGANYKNFKTRTFKSTYEIDWENHKVKLLDTKETENNK
modifications: left off: small tags and cut ends
- cytotoxic activity against hPMNs (human PMNs [2]): exhibited potent cytotoxic activity against hPMNs
